This series is described as follows: soluble on expression in E. coli; label from the status in PepcDB or PDB records.
With “MSLTIIKQVELHEFDFKAKNLGNLTGAESVGAFGYLKGSFSKIKKFAVVIITDDGVRGEYVTHWCASDATYAQSSILAPKLLGRNAEEREGIYDDFKRELRQFDHMGHGPIDIALWDWAGKKLDCSVNFLLGGFKKKLPAYASTYHGDRNGGLDSKEAFSDFAEYCYDLGYKAFKIHGWNDGNAKEEAENVLHVAKKVGHKMTLMLDPACELRTFADALYVGKACDEADYFWLEDPYRDSGVSAFAHKKLRNMIKTPILQTEHIRGLEPKADFLIAGGTDFLRMDPEYDMGITGGMKIAHLAESFGVDVEIHACGPAHRHMMSAIRNTNFYEVALLGPDCPNAIPPVYLCGYSDMIDCIDKNGFVEVPNGVGLGVKYDWEFISKNTTNKKIFSLEGHHHHHH”, the “soluble on expression in E. coli” value is “soluble”.

Consider “EYRHLVLNQLRNMGGTRFFVSLNNHQIDVDPLPESERKTLVINQVREVLESELSGIPNIEVEFTQRDKLKVFNNELPIDELPLLWAHYSLSFGDLNPPILVMQVEVAQNEWFYLAAVLPAPYINLETNYFELRQ”, for which the “soluble on expression in E. coli” value is “not soluble”.

Take “AKGDPHVLLTTSAGNIELELDKQKAPVSVQNFVDYVNSGFYNNTTFHRVIPGFMIQGGGFTEQMQQKKPNPPIKNEADNGLRNTRGTIAMARTADKDSATSQFFINVADNAFLDHGQRDFGYAVFGKVVKGMDVADKISQVPTHDVGPYQNVPSKPVVILSATVLP”: the “soluble on expression in E. coli” value was “soluble”.

“MGSDKIHHHHHHMLDRIIGTASANNWLFFCLFNNKFSGDIDSQRLLNMFRSVIAALLACLSYSAHAVVILQYHHVSEDTPKVTSVIPAQFREQMSYLRENGFKVKPLTHVVEAIKQGRELADKTVAITFDDGYQNIADTAHPILKEFGYPYTIFISIDPIERKHKNVMSWATLKRLSDEGVTLANHSWGHEHLIRRLHGEDEQTWLTRITENLLATEAEIEAKTGQSVKMLAYPYGEYNTAIETLVQKLGFVGFGQQSGAAGGYSSLTALPRFPVAGAYADLTSLKAKLYSLNMPVLALTPRNTQLPLGQWRPEMQVTLDMADIVASQVMCFVQGQGAMKPSWESEDTFSIQAVTDLPPGRSRYNCTAPSKASGRYYWFSQAWVRPKNDGTWVKE”: the “soluble on expression in E. coli” value is “not soluble”.

Turning to “MVIPALNEAPTVAKVVEAVLADNPLEVLVIDADSTDATAAEARSAGATVLNWREILDTEPIPGKGESLWRGVAAARGDIVVFVDADLTSFRPGMVNSLVAPFLNDDIHLVKADYVRTFGDHTTGGGRVTELTAKPLLRALFPELSHIRQPLGGEYAIRRSTALAMPFVSGYGVEVGLLIDVATQFGTSSIAQVDLGSRSHNHQSLEALGSMADVVATTILQRFGHDLPVVQREPLGIHLEHHHHHH”, the “soluble on expression in E. coli” value is “not soluble”.

Consider “MGSDKIHHHHHHMGVRQKKIAAHDLEIGMFVSDLDRPWHQTPFPIQGFYLRSENDLKAVVSHCKWVMIDVAETREEITLGSDKVRPFARRSSARSGGREELQLAPLSIREPVVYKNDVPLRKELKASRKLLNDAELALSRMFETIRDDQMPDLRPAAEVTRRMVESVIRQPNALLWLSRTRQYDDFVYRHALNTAVWALVCGRQLGLNEGLLNHLGVGCLLSQVGKTALPKEMLAREHQLSTEEYATYRTYVERGCQMLEGAGLSRAVMSVVQGHRERHNGSGFPQGIRGDRIPLLAKVAGIAEFFESLIAPRDDQDPMTPAKAVSLLYDMRNIEFQEDLVEAFIQGVGVYPTGTLVELSDGQRGIVVSHSPGRRLWPSVMVMQDAEHRPLKSARIVDLARHIESRAASELLTVRECLPHGTDGLDPAGFDVTGAESRWSLGKLINR”, for which the “soluble on expression in E. coli” value is “not soluble”.

For the sequence “MAHHHHHHMNVEVTGRCFFTGDDYYISLPITNRAANRGEPRQLLCSEMIHWDDYRQERGINDGKPPMQQLFASSYAEPLVRTFALGNDTYVTQVTGVSATQAGSSSQMFSAEMLHWDDYCAARGINAGEPTMASLFRPFESKSILVFDLNERKLTEFEGNSVALISYGADRQTYCSEMEHRDDYIRAKTGQAPQPSMASLFA”, the “soluble on expression in E. coli” value was “not soluble”.

In the case of “MRFNHFSIVDKNFDEQLAELDQLGFRWSVFWDEKKILKDFLIQSPSDMTALQATAELDVIEFLKSSIELDWEIFWNIALQLLDFVPNFDFEIGKAFEYAKNSNLPQIEAEMTTENIISAFYYLLCTRRKTGMILVEHWVSEGLLPLDNHYHFFNDKSLATFDSSLLEREVLWVESPVDSEQRGENDLIKIQIIRPKSTEKLPVVMTASPYHLGINDKANDLALHDMNVELEEKTSHEIHVEQKLPQKLSAKAKELPIVDKAPYRFTHGWTYSLNDYFLTRGFASIYVAGVGTRSSDGFQTSGDYQQIYSMTAVIDWLNGRARAYTSRKKTHEIKASWANGKVAMTGKSYLGTMAYGAATTGVEGLELILAEAGISSWYNYYRENGLVRSPGGFPGEDLDVLAALTYSRNLDGADFLKGNAEYEKRLAEMTAALDRKSGDYNQFWHDRNYLINTDKVKADVLIVHGLQDWNVTPEQAYNFWKALPEGHAKHAFLHRGAHIYMNSWQSIDFSETINAYFVAKLLDRDLNLNLPPVILQENSKDQVWTMMNDFGANTQIKLPLGKTAVSFAQFDNNYDDETFKKYSKDFNVFKKDLFENKANEAVIDLELPSMLTINGPVELELRLKLNDTKGFLSAQILDFGQKKRLEDKVRVKDFKVLDRGRNFMLDDLVELPLVESPYQLVTKGFTNLQNQSLLTVSDLKADEWFTIKFELQPTIYHLEKADKLRVILYSTDFEHTVRDNRKVTYEIDLSQSKLIIPIESVKN”, the “soluble on expression in E. coli” value is recorded as “soluble”.

Take “MTTWTLNHNNLTKFLTHAQLEPSLERESGLIYITVPAGEHELPLFFVIRNEGEVLQLVCYFPYQIQQNQRDTTARLLHLVNRDIDIPGFGMDEEQNIIFYRLVIPCLKGEINEDLLRVYIDTIKLICDSFFHAIGLISTGNMDLDELKKQAKLENNQSDQLEP”: the “soluble on expression in E. coli” value is “soluble”.

Consider “MFNFANVYQQIAQHPQLQLWLNTLPQQLTDWQAKQHGDLDRWMRNLKKIPVGQPEVIDLKNAVAAHNHQPLAQGEQKKLEAVLKTFHPWRKGPYHLHGIHIDTEWRSDWKWDRLLPHISPLKNRLVLDVGCGNGYHMWRMLGEGAQQVFGIDPSELFLIQFEAVRKLLGDDQRVHLLPLGIEQMPELNAFDTVFSMGVLYHRRSPLDHLLQLKNQLVAGGELILETLVVEGDEHTVLVPFDRYAQMRNVYFFPSALALKVWLEKTGFVDVRIVDENITSLGEQRTTEWMTHNSLPDYVDPQDPSKTIEGYPAPRRAILIAKKP”, for which the “soluble on expression in E. coli” value was “not soluble”.

As to “MQAIAIDQFSEPEETQVEQVENPDRNEAGYEVCNQSGENLSVAIAYFDTSIDSYRSEGWWNLDQSKCQFFPNLLDSVDEVYVFAESDQTLWSGDFPFCMQEDAFEYPDANRDRCPSPAYSKGFLKVEVGDAKTWTTNLTPSQLEHHHHHH”, the “soluble on expression in E. coli” value is listed as “not soluble”.

Regarding “GPGSMFSLVRGLYSSIFADDTRKVLIVGLESSGKTTLSEQLKHMYATESSKNGANSSTTEENSGDATASEVNYNFPTPAPVESLRKKIRPTTGLNRSSVTHVTTPPQHETPNVSLTPLTTPLILWDIGGSLRPLWGNFFGTCHGVIFVVDSTLGEATSNGCSEGGRKTSPDQVGTSEDDESDVGAQPNSPIGDVREGERSQFLRKLYAKDALILRQMFSHPLLAGAPLLIVSNKVDAANHHTLVEIQDALRLVDVALMDEFYADDCVVGEPVYGELHRNGEGDYEGPPDRSAYDKLSNEKSFGGVATPPPGSSGIGNRVMRLVEMSALHGTGVVDGMNWLVAQMRDSGRQPLPDDGK”, the “soluble on expression in E. coli” value is “not soluble”.

Take “MKPEKIDCNFKLIYCEDEESKGGRLEFSLEEVLAISRNVYKRVRTNRKHHHHHH”: the “soluble on expression in E. coli” value is on record as “soluble”.

For “MASLSRALRVAAAHPRQSPTRGMGPCNLSSAAGPTAEKSVPYQRTLKEGQGTSVVAQGPSRPLPSTANVVVIGGGSLGCQTLYHLAKLGMSGAVLLERERLTSGTTWHTAGLLWQLRPSDVEVELLAHTRRVVSRELEEETGLHTGWIQNGGLFIASNRQRLDEYKRLMSLGKAYGVESHVLSPAETKTLYPLMNVDDLYGTLYVPHDGTMDPAGTCTTLARAASARGAQVIENCPVTGIRVWTDDFGVRRVAGVETQHGSIQTPCVVNCAGVWASAVGRMAGVKVPLVAMHHAYVVTERIEGIQNMPNVRDHDASVYLRLQGDALSVGGYEANPIFWEEVSDKFAFGLFDLDWEVFTQHIEGAINRVPVLEKTGIKSTVCGPESFTPDHKPLMGEAPELRGFFLGCGFNSAGMMLGGGCGQELAHWIIHGRPEKDMHGYDIRRFHHSLTDHPRWIRERSHESYAKNYSVVFPHDEPLAGRNMRRDPLHEELLGQGCVFQERHGWERPGWFHPRGPAPVLEYDYYGAYGSRAHEDYAYRRLLADEYTFAFPPHHDTIKKECLACRGAAAVFDMSYFGKFYLVGLDARKAADWLFSADVSRPPGSTVYTCMLNHRGGTESDLTVSRLAPSHQASPLAPAFEGDGYYLAMGGAVAQHNWSHITTVLQDQKSQCQLIDSSEDLGMISIQGPASRAILQEVLDADLSNEAFPFSTHKLLRAAGHLVRAMRLSFVGELGWELHIPKASCVPVYRAVMAAGAKHGLINAGYRAIDSLSIEKGYRHWHADLRPDDSPLEAGLAFTCKLKSPVPFLGREALEQQRAAGLRRRLVCFTMEDKVPMFGLEAIWRNGQVVGHVRRADFGFAIDKTIAYGYIHDPSGGPVSLDFVKSGDYALERMGVTYGAQAHLKSPFDPNNKRVKGIY”, the “soluble on expression in E. coli” value was “not soluble”.

Consider “SEILISAVATDLISRFISSVTQNYRNHIHKEDDRRRLERILLRMHSVVEEAGGRHITNQGMILQLKGLVEGFYLGYYMLDKIKFQPPEYEVSHEIQSFALSACNSAKRFRFADAISKRTPVAFGSRSRTNLKDVVDGLETKIADMREFVILLGSHPRLPRQPYSTYLYIDNCMFGRRIEKEQVINFLLCNDPHDPYVSILPIIGPQRIGKKTLVQHACLDERVRDCFSHIFFFKEDDLKTGELSLNSKASQGKYLFVIEFIWDVDEAAWTKFQSYLQNMPATGIKVVVIGRTEDIAKFGTSQPIRVKRLSEEEYWYYFKALAFGSMDPDEHPKLASLAMQLSTEMNGSFLGATMFGELLRANPNTQFWKRILLFLRELARKHLTSSGLHPEDLFERNIPVDLSRIAVVDGQVQDFMVYDVRVAGPAEGELPKLTSRDILLGGDIPVEDKFDVLVWRSRIPPYCNYIVTYEKQKPRRMVGKRNTIYL”, for which the “soluble on expression in E. coli” value was “soluble”.

Consider “MGSDKIHHHHHHMDFKQVQQSFIDYIRDPQRPVPVGVPLARMQVYRELFFNNVMGFVSNGFPVLKSLYTDEQWQTLVQAFFGQHDCKSPVFIDIAGEFLDFLQFQYSPMDSDPPFMLELAHYEWLELRVATAQQDDRQELIGKEDITYRNLCLAATASVAQYQYPVQQIRPDYRPSEPLVNPVYFCLYQDEVGEVGFLQLTPLSAQVLGYLTEKGQGTFDELTQWLAATYPQMPTETLTQGCLALLEQLATKSIVRGV”, for which the “soluble on expression in E. coli” value is listed as “not soluble”.

In the case of “VSKAVQYMAKRRIGALIVFEKETGLQDYIETGIPMNSDISQELLTNVFIPNTPLHDGAMIIQGSKIAVAASYLPLSDSVKISKSLGTRHRAAVGISEVSDAFTVVVSEETGDISVTFDGKLRRDISKDVFEELLAEHWFGAHFQKKGVNS”, the “soluble on expression in E. coli” value is “not soluble”.

Turning to “MRIEVTIAKTSPLPAGAIDALAGELSRRIQYAFPDNEGHVSVRYAAANNLSVIGATKEDKQRISEILQETWESADDWFVSE”, the “soluble on expression in E. coli” value was “soluble”.

For “MGSDKIHHHHHHVAISIAGGVRPGKVIEIERRLYKQLIVGKHKANAMPDELSAELEESANKLDIERKALKMRLEKQAKEKSVYVEVSALLTHTVNNAIEHQLAHPQMILEASAISENQILLLDLLLHPDLNINRLRPIIESINWLSRDLINLINSPASRHRRPKHGDVQVTDIKLVLNYIGIEHLRLLIPYFCLRNWLPSGNANLLWITRKLWRYSMVSAIAAQTLAELHNEEPGLAYSCALMYQFSTSIILSQSGRIFDNTWGTWLREASHSREKQVYDAIMATDFPAEEVLGQVLLHSHRLNWQLLSLLKFDDSPITQVLKELDHDYHFTELSADAAIVAKASCYAKVLLLEEQQQIDPQEKRIMFDYYQFSAQELIRLKGQNFRKLDLL”, the “soluble on expression in E. coli” value is recorded as “not soluble”.

For the origin of these results see the DeepSol protein solubility set.
